Reference: paper PMC4231741

Biological target: MspJI wild type (modification-dependent restriction endonuclease)
Assay: crystal structure

In the case of “MspJI wild type (modification-dependent restriction endonuclease) (enzyme)”, the stoichiometry N is reported as 4.
